Test results from PMC4947154, “Structural basis of transcobalamin recognition by human CD320 receptor” (Nature Communications, 2016).

T1: CD320 extracellular domain, residues 53-199 (crystallization construct) (human, UniProt Q9NPF0 53-199)
T1 construct: CD320 (transcobalamin receptor), human, residues 53-199 of the extracellular domain; native secretion signal replaced with a Melittin secretion signal; Density seen for LDLR-A1 residues 53-89 and LDLR-A2 residues 129-171; none for the EGF-like domain (90-128); also called N-terminal 22 amino acid deletion of the receptor; not shown: His9, N-terminal, cleaved; MBP, N-terminal, cleaved
T1 sequence (looked up): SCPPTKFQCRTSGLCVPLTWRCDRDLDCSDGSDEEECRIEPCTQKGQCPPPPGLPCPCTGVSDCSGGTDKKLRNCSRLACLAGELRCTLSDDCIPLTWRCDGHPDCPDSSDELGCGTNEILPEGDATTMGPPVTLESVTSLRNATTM

B1: MBP-tagged, biotinylated CD320 LDLR-A2 domain (residues 125-199, Avi Tag) (domain or fragment)
chain: not shown
modifications: biotin on the Avi Tag (BirA)
notes: CD320, human, LDLR type A domain 2 construct, residues 125-199; source: Sf21 insect cells (Multibac baculovirus), secreted, purified (Ni-NTA, no MBP cleavage), biotinylated with BirA; not shown: His9, N-terminal, kept; MBP, N-terminal, kept
B2: human transcobalamin (holo-TC, cyanocobalamin-bound) (natural protein, UniProt P20062 19-427, looked up)
chain: EMCEIPEMDSHLVEKLGQHLLPWMDRLSLEHLNPSIYVGLRLSSLQAGTKEDLYLHSLKLGYQQCLLGSAFSEDDGDCQGKPSMGQLALYLLALRANCEFVRGHKGDRLVSQLKWFLEDEKRAIGHDHKGHPHTSYYQYGLGILALCLHQKRVHDSVVDKLLYAVEPFHQGHHSVDTAAMAGLAFTCLKRSNFNPGRRQRITMAIRTVQEEILKAQTPEGHFGNVYSTPLALQFLMTSPMRGAELGTACLKARVALLASLQDGAFQNALMISQLLPVLNHKTYIDLIFPDCLAPRVMLEPAAETIPQTQEIISVTLQVLSLLPPYRQSISVLAGSTVEDVLKKAHELGGFTYETQASLSGPYLTSVMGKAAGEREFWQLLRDPNTPLLQGIADYRPKDGETIELRLVSW
notes: transcobalamin (TC), human, residues 1-409, cDNA GenBank BC001176.1 harbouring R209Q; native secretion signal replaced with a Melittin secretion signal; Purified in the presence of excess cyanocobalamin (Cbl-CN), so the Cbl site is occupied; R209Q came with the bought cDNA clone (ImaGenes); also called tag-less TC; full-length TC; source: Sf21 insect cells (Multibac baculovirus), secreted, …

Experiments:
[1] = biological target: B2; experiment: ELISA; solid-phase binding assay: biotinylated MBP-tagged receptor on Neutravidin plates, tag-less TC serially diluted in 20 mM Tris pH 7.5, 0.5 mM CaCl2, 150 mM NaCl, 0.05% Tween-20, 1 h RT; TC detected with antibody A-5; single-site fit, n=5; conditions: both partners purified
[2] = biological target: T1, CD320 extracellular domain, residues …; experiment: crystal structure; co-crystals of the purified complex, sitting drop, 20 °C; conditions: both partners purified

B1 showed a Kd [1] of roughly 10 nM.

With B2 the “stoichiometry N” value [2] was 1 TC:CD320.
